Results as given in patent US20060148030A1, “Nuclear receptor err y 3” (FUJISAWA PHARMACEUTICAL CO., LTD, priority 2002, published 2006).

Tested on: ERE (estrogen response element)
Test: Reporter gene assay of ERRγ3 alone, ERE luciferase reporter in CV-1 cells
Assay type: cell-based, African green monkey
Settings: ERRγ3 expression plasmid alone, FIG. 15
Protocol: In order to construct a reporter gene assay system for evaluation of the transcription-controlling activity of ERRγ3, a reporter plasmid into which ERE (estrogen response element) was inserted was prepared along with expression plasmids for ERRγ3 and ERRγ2, as follows: A reporter gene assay was performed by transfecting the reporter plasmid and expression plasmids into cultured cells by lipofection, followed by incubating the cells for a certain time, treating the cells with cell lysis solution, and measuring reporter activity with a luminometer using a Dual luciferase assay. […]
The transcription-controlling activity of ERRγ3 was evaluated using a reporter gene assay. […]
The reporter gene assay was performed using CV-1 cells (African green monkey kidney-derived cell line) as hosts. […] They were then exposed to 4-hydroxytamoxifen at different concentrations (0, 10^−10 to −10^−5 M) for 24 hours, whereupon luciferase activity within the cells was measured.
Transfection was performed as follows: CV-1 cells were suspended at 2×10^5 cells/2.5 ml in DMEM medium supplemented with 10% fetal bovine serum, 2000 U/l of penicillin G, and 100 mg/l streptomycin. […] 1 μg of each of the transcription factor expression plasmid, the luciferase reporter plasmid, and another luciferase reporter plasmid for normalizing the measured value (pRL-TK), were dissolved in Opti-MEM (Gibco BRL) to total of 150 μl. […]

B1: ERRγ3: novel ERRγ isoform, nuclear receptor protein of 396 amino acids (SEQ ID NO: 2) lacking part of the DNA binding domain (protein, listed as Homo sapiens)
chain: MSNKDRHIDSSCSSFIKTEPSSPASLTDSVNHHSPGGSSDASGSYSSTMNGHQNGLDSPPLYPSAPILGGSGPVRKLYDDCSSTIVEDPQTKCEYMLNSMPKRLCLVCGDIASGYHYGVASCEACKAFFKRTIQGVRLDRVRGGRQKYKRRIDAENSPYLNPQLAQPAKKPYNKIVSHLLVAEPEKIYAMPDPTVPDSDIKALTTLCDLADRELVVIIGWAKHIPGFSTLSLADQMSLLQSAWMEILILGVVYRSLSFEDELVYADDYIMDEDQSKLAGLLDLNNAILQLVKKYKSMKLEKEEFVTLKAIALANSDSMHIEDVEAVQKLQDVLHEALQDYEAGQHMEDPRRAGKMLMTLPLLRQTSTKAVQHFYNIKLEGKVPMHKLFLEMLEAKV
B1 was tested, and the “transcription-controlling activity of ERRγ3 by itself” value was “does not comprise the transcription-controlling activity”.
